Changes are numbered by the printed parent chain. Where two headings read alike, the source gives them in different places.
B1: PR005096 (VHH)
VHH: EVQLVETGGGLIQPGGSLRLSCAASGFNVSSHYMSWVRQAPGKGREWVSIIDGGGSTYYADSVKGRFTISRDNSKNRLYLQMNSLRAEDTAMYYCARATRVPEKGGYNYPFNYWGQGTLVTVSS
notes: Monovalent single-domain (VH) variant of PR002481 with Flag-6His tag
B2: PR005104 (VHH)
VHH: B1 VHH with G53I, G54S, R100A, P102A, G105N
notes: as for B1
B3: PR005097 (VHH)
VHH: B1 VHH with R100A, P102R, G105N
notes: as for B1
B4: PR005103 (VHH)
VHH: B1 VHH with G53R, S56G, R100A, P102A, G105N
notes: as for B1
B5: PR005098 (VHH)
VHH: B1 VHH with R100Q, P102R
notes: as for B1
B6: PR005572 (antibody, human IgG1, V domains shown)
VH: B1 VHH with S30A, S31F, H32Y, G53K, R100E, P102R, G105Q
notes: no light chain; also called anti-PD1 PR002481Com_32 HCAb hIgG1
B7: PR005102 (VHH)
VHH: B1 VHH with G53R, R100A, P102A, G105N
notes: as for B1
B8: PR005577 (antibody, human IgG1, V domains shown)
VH: B1 VHH with S30A, H32Y, G53K, G54A, T57G, R100E, P102R, G105Q
notes: no light chain; also called anti-PD1 PR002481Com_26 HCAb hIgG1
B9: PR005575 (antibody, human IgG1, V domains shown)
VH: B1 VHH with S30A, G53K, G54A, T57G, R100E, P102R, G105Q
notes: no light chain; also called anti-PD1 PR002481Com_24 HCAb hIgG1
B10: PR005099 (VHH)
VHH: B1 VHH with G53S, G54A, R100A, P102A, G105N
notes: as for B1
B11: PR005101 (VHH)
VHH: B1 VHH with G53K, S56G, R100A, P102A, G105N
notes: as for B1
B12: PR005569 (antibody, human IgG1, V domains shown)
VH: B1 VHH with S31F, H32Y, G53K, G54S, D61A, R100E, P102R, G105N
notes: no light chain; also called anti-PD1 PR002481R2M4_E2 HCAb hIgG1
B13: PR005578 (antibody, human IgG1, V domains shown)
VH: B1 VHH with S30A, H32Y, G53K, G54A, T57G, R100A, P102R, G105Q
notes: no light chain; also called anti-PD1 PR002481Com_27 HCAb hIgG1
B14: PR005100 (VHH)
VHH: B1 VHH with G53R, T57K, R100A, P102A, G105N
notes: as for B1

Columns and labels:
[1] = target: T1, Human PD-1 protein with histidine and avi tags (ACRO Biosystems, PD1-H82E4) (human, UniProt Q15116 25-167); assay: BLI (Octet Red96e), PD-1 captured on SA sensor, 1:1 local fit
T1 construct: Captured on streptavidin (SA) sensors in the BLI assay; not shown: histidine and avi tags
Experimental: (§1) Human PD-1 proteins with histidine and avi tags were purchased from the manufacturer ACRO Biosystems (Cat#: PD1-H82E4), and the assay buffer was 1× kinetics buffer (diluted from 10× kinetics buffer (ForteBio, Cat#: 18-1105)) for kinetic assay and dilution of antigens and antibodies. The binding kinetics between the antigen and the antibody was analyzed by the biolayer interferometry (BLI) technique using an Octet molecular interaction analyzer (ForteBio, model: Octet Red96e).
(§2) When the binding kinetics between the antigen and the antibody was determined, the rotation speed of the sensor was set at 1000 rpm/min. The eight SA sensors placed in a column were first equilibrated in an assay buffer for 10 min and then used to capture PD-1 at a capture height of 0.5 nm. Thereafter, the SA sensors were equilibrated in the assay buffer for 100 s, and then were associated with each antibody diluted to a single concentration and with a row of blank buffer wells for 180 s, followed by dissociation for 600 s. A new column of SA sensors were used in each cycle.
(§3) When data analysis was performed using Octet Data Analysis software (Fortebio, version 11.0), the reference signals were subtracted by a single reference mode (reference well), the data were fitted by a “1:1 Local fitting” method, and the kinetic parameters of the binding of the antigen to the antibody were calculated to obtain kon (1/Ms) values, kdis (1/s) values and KD (M) values.

[2] = target: T1, Human PD-1 protein with histidine and …; assay: BLI; ratio of kdis, apparently PR005090 over the variant
Experimental: as §1, §2, §3

[3] = target: T2, Human PD-1 expressed on CHO-K1 cells (CHO-K1/hPD-1) (human, UniProt Q15116 25-288); assay: FACS, CHO-K1/hPD-1 cells
T2 construct: whole, on cells; also called CHO-K1 cells overexpressing human PD-1
Experimental: In order to investigate the in vitro binding activity of the PD-1 antigen-binding proteins to human/cynomolgus monkey PD-1, the binding assay at the cellular level was performed using a CHO-K1 cell strain overexpressing human or cynomolgus monkey PD-1 (CHO-K1/hPD-1 or CHO-K1/cyno PD-1, from GenScript). Briefly, the CHO-K1-hPD-1 cells were digested and resuspended in an F-12K complete medium, and the cell density was adjusted to 1×10⁶ cells/mL. The cells were seeded in a 96-well V-bottom plate (Corning, Cat#3894) at 100 μL/well, followed by the addition of the test antigen-binding proteins with concentrations 2-fold of final concentrations obtained by 5-fold gradient dilution were each added at 100 μL/well. The mixtures were well mixed. The maximum final concentration of the antigen-binding proteins was 100 nM or 300 nM. A total of 8-11 concentrations were set. hIgG was used as a control. The cells were incubated at 4° C. for 1 h away from light. Thereafter, the cells in each well were rinsed twice with 100 μL of pre-cooled PBS, and centrifuged at 500 g at 4° C. for 5 min, and then the supernatant was discarded. Then 100 μL of a fluorescent secondary antibody (goat anti-human IgG (H+L) secondary antibody, Alexa Fluor® 488 conjugate, Invitrogen, Cat #A11013, 1:1000) was added to each well. The plate was incubated away from light at 4° C. for 30 min. The cells in each well were rinsed twice with 200 μL of pre-cooled PBS, and centrifuged at 500 g at 4° C. for 5 min, and then the supernatant was discarded. Finally, the cells in each well were resuspended in 200 μL of pre-cooled PBS, and the fluorescence signal values were read using a BD FACS CANTOII.

[4] = target: T2, Human PD-1 expressed on CHO-K1 cells …; assay: FACS, CHO-K1/hPD-1 cells; remark: listed apart in the source

T1 sequence (Q15116 25-167 limits assumed): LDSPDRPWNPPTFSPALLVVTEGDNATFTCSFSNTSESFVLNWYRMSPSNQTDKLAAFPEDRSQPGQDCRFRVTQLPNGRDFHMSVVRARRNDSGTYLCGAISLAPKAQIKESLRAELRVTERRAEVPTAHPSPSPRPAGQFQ
T2 sequence (Q15116 25-288): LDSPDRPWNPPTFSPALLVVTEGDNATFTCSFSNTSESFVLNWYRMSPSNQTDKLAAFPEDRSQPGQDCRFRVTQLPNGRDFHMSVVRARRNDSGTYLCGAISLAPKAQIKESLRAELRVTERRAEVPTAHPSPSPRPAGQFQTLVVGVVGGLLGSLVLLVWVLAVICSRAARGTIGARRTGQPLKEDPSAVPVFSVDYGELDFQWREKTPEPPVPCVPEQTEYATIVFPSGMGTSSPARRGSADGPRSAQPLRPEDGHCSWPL

Binder	Kd [1]	koff [1]	kon [1]	kdis ratio [2]	EC50 [3]	MFI Maximum [3]	EC50 [4]	Maximum (MFI) [4]
B1	10.4 nM	0.000599 s⁻¹	57900 M⁻¹ s⁻¹	1.91	27.6 nM	4320	–	–
B2	3.08 nM	0.000243 s⁻¹	79000 M⁻¹ s⁻¹	4.7	11.8 nM	7300	–	–
B3	13.9 nM	0.000784 s⁻¹	56600 M⁻¹ s⁻¹	1.46	17.9 nM	4080	–	–
B4	79.6 nM	0.000252 s⁻¹	3160 M⁻¹ s⁻¹	4.54	14.5 nM	6890	–	–
B5	5.88 nM	0.000394 s⁻¹	67100 M⁻¹ s⁻¹	2.9	18.4 nM	5720	–	–
B6	3.32 nM	4.28e-05 s⁻¹	12900 M⁻¹ s⁻¹	–	–	–	4.68 nM	3.04e+06
B7	5.99 nM	0.000268 s⁻¹	44800 M⁻¹ s⁻¹	4.25	12.2 nM	6560	–	–
B8	–	–	–	–	–	–	6.5 nM	2.49e+06
B9	6.46 nM	4.28e-05 s⁻¹	12900 M⁻¹ s⁻¹	–	–	–	3.93 nM	2.58e+06
B10	4.32 nM	0.000455 s⁻¹	105000 M⁻¹ s⁻¹	2.51	15.4 nM	6350	–	–
B11	58.8 nM	0.000173 s⁻¹	2940 M⁻¹ s⁻¹	6.61	22.1 nM	6900	–	–
B12	0.482 nM	5.75e-06 s⁻¹	11900 M⁻¹ s⁻¹	–	–	–	3.4 nM	3.14e+06
B13	–	–	–	–	–	–	4.28 nM	2.71e+06
B14	11.6 nM	0.000301 s⁻¹	26000 M⁻¹ s⁻¹	3.8	19 nM	6510	–	–
